The record followed here is patent US20200255516A1 (JIANGSU HENGRUI MEDICINE, published 2020).

A word on the Kd: it is the free concentration of one partner at which half of the binding sites on the other are occupied at equilibrium, for simple one-to-one binding. The term koff denotes the rate constant with which the complex falls apart. A low value points to slow dissociation. The kon is a measure of how fast the partners come together. Lower therefore signals slow association. Usually IC50 stands for the midpoint of a concentration-inhibition curve. Low values mean higher potency, high ones lower potency. One may read the EC50 as the midpoint of the concentration-response curve. Read a high EC50 as weaker potency. What is called EC50 (read off the curve) is the concentration needed to bring the measured effect to its halfway point. A high value points to weaker potency.

The labels stand for the following.
T1: TIGIT fusion protein with Fc or mFc tag (human, UniProt Q495A1 22-141)
T1 construct: extracellular domain; also called TIGIT-Fc; TIGIT-mFc
T1 sequence (looked up): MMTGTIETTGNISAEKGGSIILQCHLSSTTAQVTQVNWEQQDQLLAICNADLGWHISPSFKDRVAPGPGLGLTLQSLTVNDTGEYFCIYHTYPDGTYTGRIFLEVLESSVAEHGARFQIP

T2: human TIGIT (Sinobiological Co., Ltd., Cat. 10917-H08-H) (human, UniProt Q495A1 22-141)
T2 construct: also called huTIGIT; TIGIT-His
T2 sequence (looked up): T1 sequence (looked up)

T3: Full-length human TIGIT on CHO cells overexpressing TIGIT (human, UniProt Q495A1 22-244)
T3 construct: also called TIGIT-CHO cells; CHO cells overexpressing human TIGIT
T3 sequence: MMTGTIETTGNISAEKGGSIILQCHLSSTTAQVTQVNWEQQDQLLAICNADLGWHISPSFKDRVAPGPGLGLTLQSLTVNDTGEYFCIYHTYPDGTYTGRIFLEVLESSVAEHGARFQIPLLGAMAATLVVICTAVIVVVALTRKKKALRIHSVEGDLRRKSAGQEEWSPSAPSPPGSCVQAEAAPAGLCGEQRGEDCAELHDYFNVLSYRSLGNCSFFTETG

T4: human TIGIT on SEB-activated human PBMC (human, UniProt Q495A1)
T4 construct: native, on the cell surface
T4 sequence (receptor chain, looked up): T3 sequence

B1: h1707-02 (antibody, human IgG4 S228P, kappa, V domains shown)
VH: EVQLVESGGGLVQPGGSLRLSCAASGFTFSDYHMYWVRQAPGKGLEWVAYISKGGISTYYPDTVKGRFTISRDNAKNSLYLQMSRLRAEDTAVYYCARQSSYDFAMDYWGRGTLVTVSS
VL: DIQMTQSPSFLSASVGDRVTITCKASQDVGTSVAWYQQKPGKAPKLLIYWASARHTGVPSRFSGSGSGTDFTLTISSLQPEDFATYYCQQYSSYPLTFGQGTKLEIKR
notes: also called humanized TIGIT antibody h1707-02
B2: h1711-04 (antibody, human IgG4 S228P, kappa, V domains shown)
VH: EVQLVQSGAEVKKPGSSVKVSCKASGYTFSNYWIGWVRQAPGQGLEWIGDIYPGGAYTNYNEKFKDRVTITADKSTSTAYMEFSSLRSEDTAVYYCTRGDYYDSSGRAMDYWGQGTLVTVSS
VL: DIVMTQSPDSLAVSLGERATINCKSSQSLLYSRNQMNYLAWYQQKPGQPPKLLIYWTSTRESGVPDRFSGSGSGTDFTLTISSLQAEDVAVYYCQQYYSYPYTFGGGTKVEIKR
notes: also called humanized TIGIT antibody h1711-04
B3: h1709-10 (antibody, human IgG4 S228P, kappa, V domains shown)
VH: EVQLVQSGAEVKKPGASVKVSCKASGYTFTDYYMHWVRQAPGQGLEWMGLVYPYNDNTGYNRKFKGRVTMTVDTSTSTVYMELNSLRSEDTAVYYCARGGPSNWNYFDYWGQGTLVTVSS
VL: DIQMTQSPSSLSASVGDRVTITCKASQNVVTAVAWYQQKPGKSPKLLIYSASNRYTGVPDRFSGSGSGTDFTLTISSLQPEDFATYFCQQYTLYPLTFGGGTKVEIKR
notes: also called humanized TIGIT antibody h1709-10
B4: h1710-01 (antibody, human IgG4 S228P, kappa, V domains shown)
VH: EVQLVQSGAEVKKPGASVKVSCKASGYTFTNYYMHWVRQAPGQGLEWMGRIDPTSGATKYNDNFKGRVTMTRDTSTSTVYMELSSLRSEDTAVYYCAREGGFGYYFDYWGQGTTVTVSS
VL: DIQMTQSPSSLSASVGDRVTITCRTSENIFTYLAWYQQKPGKAPKLLIYNAKTFAEGVPSRFSGSGSGTDFTLTISSLQPEDFATYYCQHHYGIPLPFGQGTKLEIKR
notes: also called humanized TIGIT antibody h1710-01

In the first test the target is T1, TIGIT fusion protein with Fc or mFc tag. As to the kind of experiment: FACS blocking assay: TIGIT-mFc pre-incubated with the antibody, added to CHO cells overexpressing CD112 (blocked ligand), PE anti-mouse IgG, MFI.
As to B1, the “IC50 (read off the curve)” value is approximately 5000 pM.

With B2, the “IC50 (read off the curve)” value is approximately 5000 pM.

For the molecule B3, the “IC50 (read off the curve)” value was approximately 5000 pM.

On to B4, for which the “IC50 (read off the curve)” value was approximately 5000 pM.

For the next test, the target named is T5, cynoTIGIT-mFc (fusion protein of cynoTIGIT extracellular domain and mouse IgG2a Fc fragment) (cynomolgus).
T5 construct: also called monkey TIGIT; cynomolgus TIGIT-mFc fusion protein
T5 sequence (chain, as listed by the source limits assumed): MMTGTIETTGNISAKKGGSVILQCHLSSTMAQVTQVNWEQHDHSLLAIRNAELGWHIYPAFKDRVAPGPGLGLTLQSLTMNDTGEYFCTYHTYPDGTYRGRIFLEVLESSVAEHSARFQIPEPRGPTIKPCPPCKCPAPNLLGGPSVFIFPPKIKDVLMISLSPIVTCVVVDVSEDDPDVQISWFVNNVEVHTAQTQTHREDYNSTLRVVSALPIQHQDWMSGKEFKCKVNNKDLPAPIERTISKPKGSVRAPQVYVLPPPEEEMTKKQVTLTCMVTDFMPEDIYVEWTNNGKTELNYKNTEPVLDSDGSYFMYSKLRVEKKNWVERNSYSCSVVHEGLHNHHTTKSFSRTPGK
In words: SPR (Biacore T200), antibody held by Fc affinity capture, cynoTIGIT-mFc in mobile phase, 1:1 Langmuir fit. (In SPR one partner is held on a chip, and binding of the other changes the refractive index at the surface.)
In turn, B2 registered a Kd of 129 pM, a dissociation rate constant (koff) of 0.000317 s⁻¹ and an association rate constant (kon) of 2.46e+06 M⁻¹ s⁻¹.

Take B3: the affinity, expressed as Kd, was 300 pM; the koff is 0.000415 s⁻¹; the kon stood at 1.39e+06 M⁻¹ s⁻¹.

In turn, B4 yielded a Kd of 322 pM, a koff of 0.000371 s⁻¹ and a kon of 1.15e+06 M⁻¹ s⁻¹.

A further test addresses T1, TIGIT fusion protein with Fc or mFc tag. As to the kind of experiment: blocking cell ELISA: TIGIT-hFc or TIGIT-mFc (0.2 ug/ml) pre-mixed with the antibody, added to fixed CHO cells overexpressing CD155 (blocked ligand), OD450.
As for B1, the “IC50 (read off the curve)” value is approximately 1000 pM.

In the case of B2, the “IC50 (read off the curve)” value was approximately 1000 pM.

For the molecule B3, the “IC50 (read off the curve)” value was approximately 1000 pM.

Regarding B4, the “IC50 (read off the curve)” value was approximately 1000 pM.

The next test deals with T2, human TIGIT (Sinobiological Co., Ltd., …). As to the kind of experiment: SPR (Biacore T200), antibody captured via Protein A, huTIGIT in mobile phase, 1:1 Langmuir fit.
Molecule B1 gave a Kd of 108 pM, a koff of 0.000188 s⁻¹ and a kon of 1.74e+06 M⁻¹ s⁻¹.

Molecule B2 returned a Kd of 238 pM, a koff of 0.000436 s⁻¹ and a kon of 1.83e+06 M⁻¹ s⁻¹.

Regarding B3, the Kd was found to be 104 pM, the koff was 0.000259 s⁻¹ and the association rate constant (kon) worked out at 2.49e+06 M⁻¹ s⁻¹.

For B4, binding was put at a Kd of 147 pM, the koff turned out to be 0.00024 s⁻¹ and the kon is 1.63e+06 M⁻¹ s⁻¹.

The target in a further test is T3, Full-length human TIGIT on CHO cells …. As to the kind of experiment: FACS blocking assay on TIGIT-CHO cells; competitor CF633-labeled CD155-Fc at 2 ug/ml.
The molecule B1 returned an IC50 of 482 pM.

B2 returned an IC50 of 570 pM.

Turning to B3, the IC50 stood at 427 pM.

B4 came in with an IC50 of 468 pM.

A further test has the same target. As to the kind of experiment: cell ELISA on fixed CHO cells overexpressing human TIGIT. (In general: ELISA stands for enzyme-linked immunosorbent assay.)
B1: a half-maximal effect (EC50) was put at 87.2 pM.

Molecule B2 showed an EC50 of 58.7 pM.

As for B3, the EC50 was 56.8 pM.

In the case of B4, the response was half-maximal at 76.9 pM (EC50).

The target of the next test is T1, TIGIT fusion protein with Fc or mFc tag. In words: HTRF blocking assay: TIGIT-Fc or TIGIT-mFc with biotinylated CD155 as the blocked ligand, ratio 665/620.
Take B1: the “IC50 (read off the curve)” value was approximately 3000 pM.

Turning to B2, the “IC50 (read off the curve)” value is approximately 3000 pM.

Consider B3, for which the “IC50 (read off the curve)” value was approximately 3000 pM.

With B4, the “IC50 (read off the curve)” value is approximately 2000 pM.

Another test deals with T5, cynoTIGIT-mFc (fusion protein of …). As to the kind of experiment: ELISA: cynomolgus TIGIT-Fc or TIGIT-mFc captured by coated anti-Fc antibody, HRP secondary antibody, OD450.
In the case of B1, the binding result is “binds”.

Regarding B2, the “EC50 (read off the curve)” value is approximately 100 pM.

For the molecule B3, the “EC50 (read off the curve)” value was approximately 100 pM.

In the case of B4, the “EC50 (read off the curve)” value is approximately 100 pM.

The next test deals with T4, human TIGIT on SEB-activated human PBMC. As to the kind of experiment: flow cytometry on SEB-activated human PBMC, PE anti-human IgG, MFI. (In flow cytometry, cells or beads pass a laser one at a time.)
For the molecule B1, the “EC50 (read off the curve)” value was approximately 300 pM.

As to B2, the concentration giving a half-maximal response (EC50 (read off the curve)) is approximately 300 pM.

On to B3, for which the “EC50 (read off the curve)” value was approximately 300 pM.

With B4, the “EC50 (read off the curve)” value is approximately 300 pM.

The target in the next test is T2, human TIGIT (Sinobiological Co., Ltd., …). In words: SPR (Biacore), captured antibody, TIGIT-His as analyte.
B2 registered a Kd of 210 pM, a koff of 0.000442 s⁻¹ and a kon of 2.1e+06 M⁻¹ s⁻¹.

For a further test, the target named is T1, TIGIT fusion protein with Fc or mFc tag. As to the kind of experiment: ELISA: human TIGIT-Fc or TIGIT-mFc captured by coated anti-Fc antibody, HRP secondary antibody, OD450.
Consider B1, for which the concentration for a half-maximal effect (EC50 (read off the curve)) was approximately 100 pM.

For the molecule B2, the concentration giving a half-maximal response (EC50 (read off the curve)) is approximately 100 pM.

As to B3, the 50% effective concentration (EC50 (read off the curve)) was approximately 100 pM.

For B4, the “EC50 (read off the curve)” value is approximately 100 pM.
